According to article PMC3642871 (Biochemistry, 2008):

B1: ΔC10 huMIF(1-104) (domain or fragment, human, UniProt P14174 2-105, looked up)
chain: PMFIVNTNVPRASVPDGFLSELTQQLAQATGKPPQYIAVHVVPDQLMAFGGSSEPCALCSLHSIGKIGGAQNRSYSKLLCGLLAERLRISPDRVYINYYDMNAA
B2: Recombinant, soluble huMIF receptor ectodomain (sCD74 73-232) (domain or fragment, UniProt P04233-2 73-232, looked up)
chain: QQQGRLDKLTVTSQNLQLENLRMKLPKPPKPVSKMRMATPLLMQALPMGALPQGPMQNATKYGNMTEDHVMHLLQNADPLKVYPPLKGSFPENLRHLKNTMETIDWKVFESWMHHWLLFEMSRHSLEQKPTDAPPKESLELEDPSSGLGVTKQDLGPVPM
B3: ΔC5 huMIF(1-109) (domain or fragment, human, UniProt P14174 2-110, looked up)
chain: PMFIVNTNVPRASVPDGFLSELTQQLAQATGKPPQYIAVHVVPDQLMAFGGSSEPCALCSLHSIGKIGGAQNRSYSKLLCGLLAERLRISPDRVYINYYDMNAANVGWN
B4: P107 huMIF (natural protein, human, UniProt P14174 2-115, looked up)
chain: PMFIVNTNVPRASVPDGFLSELTQQLAQATGKPPQYIAVHVVPDQLMAFGGSSEPCALCSLHSIGKIGGAQNRSYSKLLCGLLAERLRISPDRVYINYYDMNAANVPGWNNSTFA

Legend:
[1] = biological target: B2; test: ELISA
[2] = biological target: the molecule itself; test: AUC
[3] = biological target: Biotinylated huMIF (human, UniProt P14174 2-115, biotin (sites not given)); test: ELISA

B1
binding result [1]: binds | stoichiometry N [2]: 3

B2
binding result [3]: binds

B3
binding result [1]: binds | stoichiometry N [2]: 3

B4
stoichiometry N [2]: 3
